According to the DeepSol protein solubility set:

Assay: soluble on expression in E. coli; label from the status in PepcDB or PDB records

With “MGSDKIHHHHHHMSLAQFQSVECADCPIRHRAVCARCDADELEALDAIKFYRSYEAGQTVVWSGDQMNFVGSVVSGIATLTQTMEDGRTQMVGLLLPSDFVGRPGREGSAYDVVATTDVIMCCFRKKPFEDLMVRTPHIAHRLLEMTLDELDAAREWMLVLGRKTAREKIASLLSIIARRDASLAVDPSNGAVSFDLKLTREAMADYLGLTLETVSRQISALKKAGVIQLEGKRHVTVPDMHRLIEEAGDDSDGGVLG” the “soluble on expression in E. coli” value was “not soluble”.

With “CKLCLGEYPVEQMTTIAQCQCIFCTLCLKQYVELLIKEGLETAISCPDAACPKQGHLQENEIECMVAAEIMQRYKKLQFER” the “soluble on expression in E. coli” value was “soluble”.

With “MGSDKIHHHHHHVRNYTYRYLNTIALPMETVRLISRINEYKGKQDLYKQQAPQVLDTLRDVAVIQSTKASNAIEGIVVTESRLHTIMSKSADPADRSEAEIAGYRDVLNLIHASARDIPINANVLLQLHKELYKFVPVEGGRWKNVDNEISESFPDGTRRTRFVPVPAFETPASVQALCDSLRERRQQEDVDPLILTSLFVLDFLSIHPFNDGNGRMSRLLTLLLLYQEGFEVGRYISLEKIVESRKEDYYESLRLSSIHWHQNQQDPFPWVNYLLSTILAAYKELEDRVGLITTGNQNKAGRIRQFVESRITPFTKADVRNACPDVSEATINRLLRELRDEGLIKPSGRGRGAKWIKR” the “soluble on expression in E. coli” value was “not soluble”.

With “MPFRSNNPITRDELLSRFFPQFHPVTTFNSGLSGGSFLIEHQGQRFVVRQPHDPDAPQSAFLRQYRALSQLPASIAPKPHLYLRDWMVVDYLPGAVKTYLPDTNELAGLLYYLHQQPRFGWRITLLPLLELYWQQSDPARRTVGWLRMLKRLRKAREPRPLRLSPLHMDVHAGNLVHSASGLKLIDWEYAGDGDIALELAAVWVENTEQHRQLVNDYATRAKIYPAQLWRQVRRWFPWLLMLKGGWFEYRWRQTGDQQFIRLADDTWRQLLIKQ” the “soluble on expression in E. coli” value was “not soluble”.

With “MGSDKIHHHHHHMPPFILNSQNVFDYLSSLNLCTLEEGESSKIELKPAKNFNLLITFPEGRKLLVKQERHNLEGKTTGEFVLEWRIHDFVSRFPELNHIRSYLSEAIYFNWENSIIIFNYLDNYRDLMDFYVKENLNLFPTQLANAVGTTLALIHRTSFNCEEYRDFFQNPGESKSNPKTPHLNRGLDRLTPEIFGKVPADGLRFFALYQRYDSLGQAIAQLINSFTPCCLTHNDLKLNNILVSLDWEDIGDENIVRLIDWERGSWGDPANDLGTLIASYLQIWLYSMVTGKSIAIEESLRLAATPLYVLQPSLRELVIAYLTHFPEILEHHPDFLQRVMQFCGLALITAIQAQLQYEKTFGNVGICMLQVAKSLLCRPEASVQTIFGVQLSDLSPVSLSQV” the “soluble on expression in E. coli” value was “not soluble”.

For “MSLELSDCSVPLTKEDIKDFEMELNIKIPAAMKNFYLKFNGGMPSPYCFQPQDEDLDWVEINAFFPIKERTNAFETIEVIAKDIWSKNLMPCNLLPFAMDSGGNYYTLNLKNKKIYYYLTDEWDENASKEYNFETNTRYIAQSFNYFINHFIEEEEEGHHHHHH”, the “soluble on expression in E. coli” value was “soluble”.

For “MVQDQLTSILTTVGLNLMAKLTDNSRSVVISPSEVALSVAKSTLKHCEPLPYELFQSDYESEFRELIEQLENFEAMKVNPSPPVWNFAISEFKKKNFKLSNGKLKKMNFIWINLETNMELSCEKTGAQMAQDKEFKVLSIPLAGDAGKFVVFFPENQEETIEESLKKLNTRKFQRLIDDLVPKFIHFEHPVFKIQSKFFISENLTMTDRGLTHEKEFEVCHGENNDFRRGLLMDRCEYVPYIFRVNRPFIFCVVQNGVPVTMGIFDGN”, the “soluble on expression in E. coli” value was “not soluble”.

With “GKEHILVCISPSQGNEKVIRTAARMAEALKGKLTAVFVETPEYEESSIKEQESLRKNLRLAEQLGAQISSVYGEDISQQLAEYANVSQATKIILGRSSKRKSWLKPKLVDKLSEQIDSTDIYIIPDTQP” the “soluble on expression in E. coli” value was “not soluble”.

In the case of “MGSDKIHHHHHHMILSRGRNYVFIHIPKTGGTALALALESRAMAGDEMLGDTPKAVKRRRRLHGTETRGRLWKHSTLADIEGLASREELRQMFAFTLVRNPFDRVVSLYHWLKEQSFDHPMVPLAHSLPFTSFVTDPLVMRALKSQPALSYMMQSDGYEHCSLYIRLEYFAKDAAPLFDHLGFALELPRVNESRRDPDWRVYYDSQAVDAVRTCCQLEIERFEYSFNDYPLSL”, the “soluble on expression in E. coli” value was “not soluble”.

For “MLSTTTIGFPRIGNQRQLKFAMESYFKGDSGEAELLAVAHKVQSDAWALQKAAGIAVIGLDGTLYDQVLDTITWLGAIPPRFKHLSGLQRYYAMARGGAALDMSKFFDTNYHYLVPELGPDVLGPATAAGAPLQPDFSGPLDKLARGQAVVGRERAVPILIGPVTFVSLSRGCELPLDQAVARLLPTYCALLQQLAAAGAPEVQLHEPVLATSEGAGMRAEFETAYAQMAQAAGSVPLHLVTYYDDLGAAYPWAVQLPVAAVTLDFLGPPGAAVPSQTLALLQQHGFPADKRLGAGVVDGRSVWKDDGTAVALLRALLDTGAVSSDRLVVTSSAPLQHLPYDLGLELEAPKTPEAEPHLPPALAARLGFAKQKVEEIVSVARLAASPAAAAAAAGHGAVVQLQRLQQGKGVEDHTADIPAEWFSRPKPYDVRREQQLQLPAFPTTTIGSFPQTAEVRRLRQQLKSGRLTQAEYEGLIAGHIAHAVGVQEALGIDVLVHGEAERTDMVEYFGMQLGGMLFTRAGWVQSYGSRCVRPPLVVDDITYRGPMTCWEYKVASAYTRKPVKGMLTGPVTILNWSFPRKDISRAAQAMQLGLALRQEVAALEAAGCTIIQVDDPALREGLPLKRERWASYLSWAVDAFRLCTGVAAAGTQVVTHLCYSDFQDILPAIDRMDADVLTIENSRSDNAMMAALAAAGYGRDIGPGVYDVHSPVVPSVEFIKSRIRSFVDSGILSGRYDRIWVNPDCGLKTRGWPETIAALRNMVEAAAQARAELQLAGGAAVAPVAGGVEAAGKGAALGAAAGTSRCVDCCH”, the “soluble on expression in E. coli” value was “not soluble”.

In the case of “MSLILVTGHRGFIGSHIYSYFNGNSEVYGFDIGDKLEDRRYDVIIHMAARGLIRKSIEFPYDYFQDDLSLVVRFLELARKNDSVFIFPSSGSTAEPTNPYSLAKKNAEEWIRLYGKLYGLKYYILRFFNIYGDGAKKGAVYLFTKAALSGEEAIVYGDGSHIRDFLYVGDVPITIERILNEKYRTGEYEVGSGKGTSVNDLISLIEKVTGKKIRTRHEDYIVPEASELVAKNTIVKNPTPLEVGVERVMEFILKDNEGHHHHHH”, the “soluble on expression in E. coli” value was “soluble”.

In the case of “MESVLNNEKAIVVFSGGQDSTTCLFYAKKHFKEVELVTFNYGQRHDTEIEVAKQIAQDQGMKHHVLDMSLLSQLTPNALTQHDMEITNNEDGIPNTFVPARNLLFLSFAGALAYQIGAKHIITGVCETDFSGYPDCRDSFIKSMNVTLSLAMDKDFVIHTPLMWLNKAETWKLSDELEVLDYIRTKTLTCYNGIIGDGCGECPACHLRQRGLNQYLESKGAL”, the “soluble on expression in E. coli” value was “not soluble”.

With “MSSISLKEIIPPQPSTQRNFTTHLSYDPTTNAIAYPCGKSAFVRCLDDGDSKVPPVVQFTGHGSSVVTTVKFSPIKGSQYLCSGDESGKVIVWGWTFDKESNSVEVNVKSEFQVLAGPISDISWDFEGRRLCVVGEGRDNFGVFISWDSGNSLGEVSGHSQRINACHLKQSRPMRSMTVGDDGSVVFYQGPPFKFSASDRTHHKQGSFVRDVEFSPDSGEFVITVGSDRKISCFDGKSGEFLKYIEDDQEPVQGGIFALSWLDSQKFATVGADATIRVWDVTTSKCVQKWTLDKQQLGNQQVGVVATGNGRIISLSLDGTLNFYELGHDEVLKTISGHNKGITALTVNPLISGSYDGRIMEWSSSSMHQDHSNLIVSLDNSKAQEYSSISWDDTLKVNGITKHEFGSQPKVASANNDGFTAVLTNDDDLLILQSFTGDIIKSVRLNSPGSAVSLSQNYVAVGLEEGNTIQVFKLSDLEVSFDLKTPLRAKPSYISISPSETYIAAGDVMGKILLYDLQSREVKTSRWAFRTSKINAISWKPAEKGANEEEIEEDLVATGSLDTNIFIYSVKRPMKIIKALNAHKDGVNNLLWETPSTLVSSGADACIKRWNVVLE” the “soluble on expression in E. coli” value was “soluble”.

With “MKPRPQSDAVDNEGPTPLSKGRRHLAMRLDDAWLGFQTRLAIRRGRVETVIPYTGYGSTSWVRVLARIVRSDPRDAAGHTNPLQESMRGWRNFTSAPVAHASVQVTIDGTVHDVVADRGGVVDARIPVALDAGWHTITLRSGESETVEAPVEIVADDAVFGVVSDIDDTVMVTALPRPFLAAWNTFVLNEHARTPTPGMAVLYERIARTAPSAPVLYLSTGAWNVAPTLSRFLSRNLYPAGPKLLTDWGPTPDRWFRSGQEHKRTSLERLAEEFPNIKWLLVGDDGQHDEAIYSEFAQRHPASVRAIAIRQLSAGEAVLAGGRSKSGGQPTPGVPWIYAPDGAGMSAQLEELGIIRLEHHHHHH” the “soluble on expression in E. coli” value was “not soluble”.

In the case of “MPNTIRLHRVLSAPPERVYRAFLDPLALAKWLPPEGFVCKVLEHDARVGGAYKMEFLAFASGQKHAFGGRYLELVPGERIRYTDRFDDAGLPGDMITTITLAPLSCGADLSIVQEGIPDAIPPENCYLGWQQSLKQLAALVEPDMPGLEHHHHHH”, the “soluble on expression in E. coli” value was “soluble”.

For “SLIDKIKSNARDLRRNLTLQERKLWRYLRSRRFSDFKFRRQHPVGSYILDFACCSARVVVELDGGQHDLAVAYDSRRTSWLESQGWTVLRFWNNEIDCNEETVLENILQELNRRSPSP”, the “soluble on expression in E. coli” value was “soluble”.

For “MALITTGSKFLRALEQEGALAVYAPLEGGYEGRYLRRLRSKGYSALTYSARGLGDPAQFLMDIHGVRPPHLGKQTIGNEAAVGRVEYVLPLVGYPLQNLPANAKGLVLWLLEGHVLSPQELSYFVTLPQAEPRLKVVIEMGGDRGFSWQPLAAVAEAALEHHHHHH”, the “soluble on expression in E. coli” value was “not soluble”.

In the case of “MAHHHHHHMKLLKVSPEKNIEFPLVHFQAVTQVVKLENISDRKVAFKIKTTAPNNYLVRPSFGLINVKETIDIQIILQPLSDKDNISNDKFQVQCLNVDDDTTVDKQFWVTVNKNEIQDHKLVVVLNDESFSKGPHSYLPPNNNPLTEINNKGHNLNYGENNLNADDANMAEGTNQRRPHRVCAAV”, the “soluble on expression in E. coli” value was “soluble”.

For “MSSVKDTMTTQVATVSPNQTIQEAASLMKQHNVGAIPVVEQGVLKGMLTDRDIALRTTAQGRDGQTPVSEVMSTELVSGNPNMSLEDASQLMAQHQIRRLPIVDQNNLVGIVALGDLAVNQMSNESAGSALTNISHQNIH”, the “soluble on expression in E. coli” value was “not soluble”.

For “MGSDKIHHHHHHMTQPFKDAIGICKAIMRNGYDAYVVNTQLQSEILDQDCLEIDIACEPGYVELGKIFPGLEMSGEDGVVGTLREGGTLFRFYHTDTDDSSHPEATLARVTPTMLRRLEAKGTLPASLACPFIPSSAETYQGFDDFSKGDIRFEGVPDETLRRSYVLGVRAMRIAANFDLPIEPNSWMAIVRSASRILDYVPVTEIMDEWRKVEAENMYKFVQLMFDSMLLHGLIPELAALSRIRHLRTPEAGEETVLDHTIECMRRYPEELPFDWLGTVATMFHDVGKLYAAEYYNGKWTFYQHHRIGAKVTRKILRRLHFLPEDVDLICHLVRNHMRFHFMLTDKGIRRFKALDEYPRLIEMARADIKARDGNYTHFNHNMKYLERAETPEQMLEPLLNGNEIMEFTGLKPGPYVGVIRDALLKAQVTGEVTSMEEAIEYVKTYSERAPR”, the “soluble on expression in E. coli” value was “not soluble”.
